Target: HLA-DRB5*01:01 molecule (recombinant HLA-DRA1 and DRB5*01:01 chains) (human)
Assay: AlphaScreen or HTRF

“IE1 211-225 variant P3 K→Y (…) (peptide)” was tested, and the IC50 was 8 nM.
